Measured values as given in the RNAGym collection of RNA variant scans (doi:10.1073/pnas.2313332121).

B1: TPR t1 (parent)
chain: GACCAAUCUGCCCUCAGAGCUCGAGAACAUCUUCGGAUGCAGAGGAGGCAGGCUUCGGUGGCGCGAUAGCGCCAACGUCCUCAACCUCCAAUGCAUCCCACCACAUGAUGAUGCCUGAAGAGCCUUGGUUUUUUG

Variants of: B1
Experiment: polymerase ribozyme fitness, log enrichment relative to wild type (log ratio); higher = more active; in vitro selection for triplet polymerase activity
In short: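 Both subunits of a heterodimeric triplet polymerase ribozyme were given their own mutant library, built by PCR and transcribed. Each library was annealed with a biotinylated primer, the partner subunit and triplets, incubated frozen at −7 °C, and its extended constructs gel-excised, captured on streptavidin beads and amplified by RT-PCR, all in one round done in triplicate. Fitness is the logarithm of genotype enrichment relative to wild-type enrichment, with replicates averaged by inverse-variance weighting. That logarithm is base 2, and Illumina-sequenced genotypes needed ≥10 input reads and ≥1 read per output.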
In the case of GAACAAUCUGCCCUCAGAGCUCGAGAACAUCUUCGGAUGCAGAGGAGUCAGGCUUCGGUGGCGCGAUAGCGCCAACGUCCUCAACCUCCAAUGCAUCCCACCACAUGAUGAUGCCUGAAGAGCCAUGGUUUUUUG, the “polymerase ribozyme fitness (log ratio)” value is reported as -2.7. With GAACAAUCUGCCCUCAGAGCUCGAGAACAUCUUCGGAUGCAGAGGAGGCAGGCUUCGGUGGCGCGAUAGCGCCAACGUCCUCAACCUCCAAUGCAUCCCACCACAUGAUGAUGCCUGAAGAGCGUUGGUUUUUUG the “polymerase ribozyme fitness (log ratio)” value was 1.55. With GAACAAACUGCCCUCAGAGCUCGAGAACAUCUUCGGAUGCAGAGGAGGCAGGCUUCUGUCGCGCGAUAGCGCCAACGUCCUCUACCUCCAAUGCAUCCCACCACAUGAUGAUGCCUGAAGCGCCUUGGUUUUUUG the “polymerase ribozyme fitness (log ratio)” value was -1.26. For GAACAAUCUGCCCUCAGAGCUCGAGAACAUCUUCGGAUGCAGAGGAGGCAGGCUUCGGUGGCGCGAUAGCGCCAACGUCCUCAACCUCCAAUGCAUCCCACCACAUGAUGAUGCCUGAAGAGCCUUGGUAUUUUG, the “polymerase ribozyme fitness (log ratio)” value was -2.53. For GAACAAUCUGCCCUCAGAGCUCGAGAACAUCUUCGGAUGCAGAGGAGGCAGGCUUCGGUGGCGCGAUAGCGCCAACGUCCUCAACCUCCAAAGCAUCCCACCACAUGAUGAUGUCUGAAGAGCCUUGGUUUUUUG, the “polymerase ribozyme fitness (log ratio)” value was -4.76. With GAACAAUCUGCCCUCAGAGCUCGAGAACAUCUUCGGAUGCAGAGGAGACAGGCUUCGGUGGCGCGAUAGCGCCAACGUCCUCAACUUCCAAUGCAUCCCACCACAUGAUGAUGCCUGAAGGGCCUUCGUUGAUUG the “polymerase ribozyme fitness (log ratio)” value was -0.349. In the case of GAACAAUCAGCCCUCAGAGCUCGAGAACAUCUUCGGAUGCAGAGGAGGCAGUCUUCGGUGGCGCGAUAGCGCCAACGUCCUCAACCUGCACUGCAUCCCACCACAUGAUGAUGCCUGAAGAGCCUUUGUUUUUUG, the “polymerase ribozyme fitness (log ratio)” value is reported as -1.59. In the case of GAACAAUCAGCACUCAGAGCUCGAGAACAUCUUCGGAUGCAGAGGAGGCAGGCUUCGGUGGCGCGAUAGCGCCAACGUCCUCGACCUCCAAUGCAUCCCACCACAUGAUGAUGCCUGAAGAGCCUUGGUUUUUUG, the “polymerase ribozyme fitness (log ratio)” value is reported as -2.57. For GAACAAUCUGCCCUCAGAGCUCGAGAACAUCUUCGGAUGCAGAGUAGGCAGGCUUCGGUGGCGCGAUAGCGGCAACGUCCUCAACCCCCAAUGCAUCCCACCACAUGAUGAUGCCUGAAGAGCCUUGGUUUUUUG, the “polymerase ribozyme fitness (log ratio)” value was -3.73. In the case of GAACAAUCUGCCCUCAGAGCUCGAGAACAUCUUCGGAUGCAGAGGAGGCAGGCUUCGGUGGCGCGAUAGCGCCAACGUCCUCAACCUCCAAUGCAUCCCACCACAUGAUGAUGCCCGAAGAGCCUUGGUUUUUUG, the “polymerase ribozyme fitness (log ratio)” value is reported as -2.44. With GAACAAUCUGCCCUCAGAGCUCGAGAACAUCUUCGGAUACAGAGGAGGCAGGCUUCGGUGGCGCGAUAGCGCCAACGUCCUCAACCUCCAAUGCAUCCCACCACAUGAUGAUACCUGAAGAGCUUUGGUUUUUUG the “polymerase ribozyme fitness (log ratio)” value was -3.14. In the case of GAACAAUCUGCCCUCAGAGCUCGAGAACAUCUUCGGAUUCAGAGGAGGCAGGCUUCGGUGGCGCGAUAGCGCCAACGUCCUCAACCUCCAAUGCAUCCCACCACAUGAUGAUGACUGAAGAGCCGUGGUUUUUUG, the “polymerase ribozyme fitness (log ratio)” value is reported as -3.98. With GAACAAUCUGCCCUCAGAGCUCGAGAACAUCUUCGAAUGCAGACGAGGCAGGCUUCGGUGGCGCGAUAGCGACAACGUCCUCAACCUCCAAUGCAUCCCACCACAUGAUGAUGCCUGAAGAGCCUUGGUAUUUUG the “polymerase ribozyme fitness (log ratio)” value was -4.85. With GAACAAUCUGCCCUCAGAGCUCGAGAACAUCUUCGGAUGCAGAGGAGGCAGGCUUCGGUGGCGCGAUAGCGCCAACGUCCGCAACCUCCAAUGCAUCCCACCACAUGAUGAUGCUUGAAGAGCCUUGGUUUUUUG the “polymerase ribozyme fitness (log ratio)” value was -6.22. For GAACAAUCUGCCCUCAGAGCUCGAGAACAUCUUCGGAUGCAGAGGAGGCAGGCUUCGGUGGCGCGAUAGCGCCAACGUCCUCAAUCUCCAAUGCAUCCCACCACAUGAUGAUGCCUGAAGAGCCUUGGUUUUUUG, the “polymerase ribozyme fitness (log ratio)” value was -2.76. For GAACAAUCUGCCCUCAGAGCUCGAGAACAUCUUCGGAUGCAGAGGAGGCAGGCUUCGGUGGCGCGAUAGCGCCAACGUCCUCAAACUCCAAUGCAUCCCACCACAUGAUGAUGCCUGAAGAGCCUUGGUUUUUUG, the “polymerase ribozyme fitness (log ratio)” value was -3.94. With GAACAAUCUGCCCUCAGAGCUCGAGAACAUCUUCGGAUGCAGAGGAGGCAGGCUUCGGUGGCGCGAUAGCGCCAACGCCCUCAACCCCCAAUGCAUCCCACUACAUGAUGAUGCCUGAAGAGCGUUGGUUAUUUG the “polymerase ribozyme fitness (log ratio)” value was -0.482. In the case of GAACAAUCUGCCCUCAGAGCUCGAGAACAUCUUCGGAUGCAGAGGAGGCAGGCUGCGGUGGCGCGAUAGCGCCAACGUCCUCAACCUCCAAUGCAUCCCACCACAUGAUGAUGCCUGAAGAGCCUUGGUUUUUUG, the “polymerase ribozyme fitness (log ratio)” value is reported as -1.43. With GAGCUAUCUGUCCUCAGAGCUCGAGAACAUCUUCGGAUGCAGAGGAGGCAGGCUUCGGUGGCGCGAUAGCGCUAACGUCCUCAACCUCGAAUGCAUCCCACCACAUGAUGAUGCCUGAAGAGUCUUGGUUUUUUG the “polymerase ribozyme fitness (log ratio)” value was -1.08. With GAACAAUCUGCCCUCAGAGCUCGAGAACAUCUUCGGAUGCAGAGGAGUCAGGCUUCGGUGGCGCGAUAGCCCCAACGUCCUCAACCUCCAAUGCAUCCCAACACAUGAUGAUGCCUGAAGAGCCUUAGUUUUUUG the “polymerase ribozyme fitness (log ratio)” value was -3.71. For GAACAAUCUGCCCUCAGAGCUCGAGAACAUCUUCGGAUGCAGAGGAGGCAGGCUUCGGUGGCGCGAUAGCGCCAACGUCCUCAACCUCCAAUGCAUCCCACCACAUGAUCAUGCCUGAAGAGGCUUGGUUUUUUG, the “polymerase ribozyme fitness (log ratio)” value was -4.82.
